Assays:
K63-linked diubiquitin = K63-linked diubiquitin (UniProt P0CG48); assay: ITC; MicroCal iTC200; proteins dialysed in 20 mM Hepes pH 7.5, 150 mM NaCl, 200 μM TCEP; 2-μl injections; who was in the cell is not given; ranges of Kd are from fits with N fixed to 1 (first value: active concentration in the cell varied, second: in the syringe); Kd of S470R and E467R/S470R called apparent
[1] = target: K63-linked tetraubiquitin (UniProt P0CG48); assay: as above

ASCC2 CUE domain (construct of the ITC experiments of Figure 2) (from UniProt Q9H1I8 463-525) (domain or fragment)
Kd (K63-linked diubiquitin): 8.7 to 10.4 µM | stoichiometry N (ASCC2 CUE domain per K63Ub2) (K63-linked diubiquitin): 1 | stoichiometry N (ASCC2 CUE domains per K63Ub4) [1]: 2
